The text below walks through data of the RNAGym collection of RNA variant scans (doi:10.7554/elife.80360).

First the molecules themselves.
B1: HDV Ribozyme (parent)
chain: GGCCGGCAUGGUCCCAGCCUCCUCGCUGGCGCCGGCUGGGCAACAUUCCGAGGGGACCGUCCCCUCGGUAAUGGCGAAUGGGACCCA

The variants in the data set derive from B1. Description: self-cleavage, relative activity (ratio to wild type); higher = more cleavage; co-transcriptional.
Consider GGCCGGCAUGGUCCCAGCCUCCUCGCUGGCGCCGGCUGGGCAACGUUCCGAGGGGACCGUCCCCUCGGUAAUGGCGAAUAGGACCCA, for which the self-cleavage was 0.177.

For GGCCGGCAUGGUCCCAGCCUCCUCGCUGGCGCCGGCUGGGCAACGUUCCGAGGGGACCGUCCCCUCGGUAAUGGCGCAUGGGACCCA, the self-cleavage stood at 0.18.

For GGCCGGCAUGGUCCCAGCCUCCUCGCUGGCGCCGGCUGGGCAACGUUCCGAGGGGACCGUCCCCUCGGUAAUGGCGGAUGGGACCCA, the self-cleavage is 0.867.

For the variant GGCCGGCAUGGUCCCAGCCUCCUCGCUGGCGCCGGCUGGGCAACGUUCCGAGGGGACCGUCCCCUCGGUAAUGGCGAAUGGGAUCCA, the self-cleavage came to 0.658.

Consider GGCCGGCAUGGUCCCAGCCUCCUCGCUGGCGCCGGCUGGGCAACGUUCCGAGGGGACCGUCCCCUCGGUAAUGGCGAAUGGGAGCCA, for which the self-cleavage is 0.623.

Consider GGCCGGCAUGGUCCCAGCCUCCUCGCUGGCGCCGGCUGGGCAACGUUCCGAGGGGACCGUCCCCUCGGUAAUGGCGAAUGGGAACCA, for which the self-cleavage worked out at 0.587.

In the case of GGCCGGCAUGGUCCCAGCCUCCUCGCUGGCGCCGGCUGGGCAACGUUUCGAGGGGACCGUCCCCUCGGUAAUGGCGAAUGGGACCCA, the self-cleavage was 0.978.

Regarding GGCCGGCAUGGUCCCAGCCUCCUCGCUGGCGCCGGCUGGGCAACGUUGCGAGGGGACCGUCCCCUCGGUAAUGGCGAAUGGGACCCA, the self-cleavage turned out to be 1.23.

With GGCCGGCAUGGUCCCAGCCUCCUCGCUGGCGCCGGCUGGGCAACGUUCCGAGGGGACCGUCGCCUCGGUAAUGGCGAAUGGGACCCA, the self-cleavage was 0.587.

GGCCGGCAUGGUCCCAGCCUCCUCGCUGGCGCCGGCUGGGCAACGUUCCGAGGGGACCGUCCCCUCGGUAAUGGCGAAUGGGACCGA: the self-cleavage is 0.95.

In the case of GGCCGGCAUGGUCCCAGCCUCCUCGCUGGCGCCGGCUGGGCAACGUUCCGAGGGGACCGUCCCCUCGGUAAUGGCGAAUGGGACCAA, the self-cleavage turned out to be 0.639.

Take GGCCGGCAUGGUCCCAGCCUCCUCGCUGGCGCCGGCUGGGCAACGUUCUGAGGGGACCGUCCCCUCGGUAAUGGCGAAUGGGACCCA: the self-cleavage turned out to be 1.24.

Turning to GGCCGGCAUGGUCCCAGCCUCCUCGCUGGCGCCGGCUGGGCAACGUUCGGAGGGGACCGUCCCCUCGGUAAUGGCGAAUGGGACCCA, the self-cleavage was 0.831.

For the variant GGCCGGCAUGGUCCCAGCCUCCUCGCUGGCGCCGGCUGGGCAACGUUCAGAGGGGACCGUCCCCUCGGUAAUGGCGAAUGGGACCCA, the self-cleavage came to 0.872.

Regarding GGCCGGCAUGGUCCCAGCCUCCUCGCUGGCGCCGGCUGGGCAACGUUCCGAGGUGACCGUCCCCUCGGUAAUGGCGAAUGGGACCCA, the self-cleavage is 1.17.

Turning to GGCCGGCAUGGUCCCAGCCUCCUCGCUGGCGCCGGCUGGGCAACCUUCCGAGGGGACCGUCCCCUCGGUAACGGCGAAUGGGACCCA, the self-cleavage came out at 0.481.

As for GGCCGGCAUGGUCCCAGCCUCCUCGCUGGCGCCGGCUGGGCAACCUUCCGAGGGGACCGUCCCCCCGGUAAUGGCGAAUGGGACCCA, the self-cleavage was found to be 0.646.

Turning to GGCCGGCAUGGUCCCAGCCUCCUCGCUGGCGCCGGCUGGGCAACCUUCCGAGGGGACCGUCCCCUCGGGAAUGGCGAAUGGGACCCA, the self-cleavage amounted to 0.974.

Regarding GGCCGGCAUGGUCCCAGCCUCCUCGCUGGCGCCGGCUGGGCAACCUUCCGAGGGGACCGUCCCCUCGGCAAUGGCGAAUGGGACCCA, the self-cleavage was determined as 0.623.

Regarding GGCCGGCAUGGUCCCAGCCUCCUCGCUGGCGCCGGCUGGGCAACGUUCCGAGGGUACCGUCCCCUCGGUAAUGGCGAAUGGGACCCA, the self-cleavage amounted to 0.888.

For GGCCGGCAUGGUCCCAGCCUCCUCGCUGGCGCCGGCUGGGCAACGUUCCGAGGGCACCGUCCCCUCGGUAAUGGCGAAUGGGACCCA, the self-cleavage was determined as 1.04.

With GGCCGGCAUGGUCCCAGCCUCCUCGCUGGCGCCGGCUGGGCAACGUUCCGAGGGAACCGUCCCCUCGGUAAUGGCGAAUGGGACCCA, the self-cleavage came to 1.08.

As to GGCCGGCAUGGUCCCAGCCUCCUCGCUGGCGCCGGCUGGGCAACGUUCCGAGGGGACCGUCCCCUCGGUAAUGGCGAAUGGGUCCCA, the self-cleavage came to 0.485.

As for GGCCGGCAUGGUCCCAGCCUCCUCGCUGGCGCCGGCUGGGCAACGUUCCGAGGGGACCGUCCCCUCGGUAUUGGCGAAUGGGACCCA, the self-cleavage is 0.997.

As to GGCCGGCAUGGUCCCAGCCUCCUCGCUGGCGCCGGCUGGGCAACGUUCCGAGGGGACCGUCCCCUCGGUAAUGGCCAAUGGGACCCA, the self-cleavage came to 1.07.

Take GGCCGGCAUGGUCCCAGCCUCCUCGCUGGCGCCGGCUGGGCAACGUUCCGAGGGGACCGUCCCCUCGGUAAUGGCAAAUGGGACCCA: the self-cleavage was determined as 0.959.

GGCCGGCAUGGUCCCAGCCUCCUCGCUGGCGCCGGCUGGGCAACGUUCCGAGGGGACCGUCCCCUCGGUAAUGUCGAAUGGGACCCA: the self-cleavage was 0.543.

As for GGCCGGCAUGGUCCCAGCCUCCUCGCUGGCGCCGGCUGGGCAACGUACCGAGGGGACCGUCCCCUCGGUAAUGGCGAAUGGGACCCA, the self-cleavage is 1.13.

As to GGCCGGCAUGGUCCCAGCCUCCUCGCUGGCGCCGGCUGGGCAACGUUCCGAGGGGACCGUCCCCUCGCUAAUGGCGAAUGGGACCCA, the self-cleavage worked out at 0.767.

On to GGCCGGCAUGGUCCCAGCCUCCUCGCUGGCGCCGGCUGGGCAACGUUCCGCGGGGACCGUCCCCUCGGUAAUGGCGAAUGGGACCCA, for which the self-cleavage is 0.987.

Turning to GGCCGGCAUGGUCCCAGCCUCCUCGCUGGCGCCGGCUGGGCAACGUUCCGAGGGGACCGUCCCCUCGGUAAUGGCGAAUGGCACCCA, the self-cleavage turned out to be 0.391.

Turning to GGCCGGCAUGGUCCCAGCCUCCUCGCUGGCGCCGGCUGGGCAACGUUCCGAGGGGACCGUCCCCUCGGUAAUGGCGAAUGGAACCCA, the self-cleavage came to 0.415.
